B9: FICD^S288C-H363A-C421S-TMR (dimerisation-sensitive fluorescent probe) (domain or fragment, human, UniProt Q9BVA6 104-445, looked up)
chain: LEARAALNQALEMKRQGKREKAQKLFMHALKMDPDFVDALTEFGIFSEEDKDIIQADYLYTRALTISPYHEKALVNRDRTLPLVEEIDQRYFSIIDSKVKKVMSIPKGNSALRRVMEETYYHHIYHTVAIEGNTLTLSEIRHILETRYAVPGKSLEEQNEVIGMHAAMKYINTTLVSRIGSVTICDVLEIHRRVLGYVDPVEAGRFRTTQVLVGHHIPPHPQDVEKQMQEFVQWLNSEEAMNLHPVEFAALAHYKLVYIAPFIDGNGRTSRLLMNLILMQAGYPPITIRKEQRSDYYHVLEAANEGDVRPFIRFIAKSTETTLDTLLFATTEYSVALPEAQP
modifications: tetramethylrhodamine (TMR-5-maleimide) on Cys288 (labelling efficiency 41%); unlabelled cysteines quenched with NEM
notes: FICD (HYPE), human, residues 104-445; also called FICD-TMR; UK 2473

Key:
[1] = target: B9; test: other fluorescence titration; 2.5 nM FICD^S288C-H363A-C421S-TMR with unlabelled FICD or nucleotide as titrant in HKTx, 45 min at 10°C; de-quenching of TMR fluorescence (excitation 535 nm, emission 585 nm); conditions: both partners purified
[2] = target: T1, biotinylated-AviTag-FICD^H363A (human, UniProt Q9BVA6 104-445, H363A, biotin on the AviTag); test: BLI; 3 nM biotinylated-AviTag-FICD^H363A incubated 10 min at 25°C with 300 nM FICD^H363A, hetero-labelled dimers loaded on streptavidin biosensors; dissociation into HKTx with or without 5 mM nucleotide; signal of sensors incubated with FICD^L258D-H363A subtracted; dimer to monomers; conditions: both partners purified
T1 construct: FICD (HYPE), human, residues 104-445 (the limits are those told for all purified FICD proteins); also called N-terminally biotinylated FICD^H363A; UK 2422; not shown: AviTag, N-terminal, kept
T1 sequence (looked up): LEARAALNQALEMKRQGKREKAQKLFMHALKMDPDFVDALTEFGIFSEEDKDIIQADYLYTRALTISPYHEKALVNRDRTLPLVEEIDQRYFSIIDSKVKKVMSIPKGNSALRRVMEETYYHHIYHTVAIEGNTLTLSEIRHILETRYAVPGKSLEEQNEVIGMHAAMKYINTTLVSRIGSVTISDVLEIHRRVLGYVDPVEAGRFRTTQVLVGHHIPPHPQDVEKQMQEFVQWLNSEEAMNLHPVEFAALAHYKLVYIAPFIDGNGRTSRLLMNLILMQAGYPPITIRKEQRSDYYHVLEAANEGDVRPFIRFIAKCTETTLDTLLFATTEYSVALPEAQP

[3] = target: T2, biotinylated-AviTag-haBiP^T229A-V461F (Chinese hamster, UniProt G3I8R9 19-654, T229A | V461F, biotin on the AviTag); test: BLI; biotinylated BiP^T229A-V461F immobilised on streptavidin biosensors and saturated with 2 mM ATP; FICD His363Ala variants at 250 nM, association or dissociation without nucleotide or with ATP 8 mM or ADP 2 mM; HKM plus 0.05% Triton X-100, 30°C; conditions: both partners purified
T2 construct: BiP, Chinese hamster; Immobilised nucleotide-free and, where indicated, saturated with 2 mM ATP on the sensor; also called BiP^T229A-V461F:Apo; BiP:ATP

[4] = target: the molecule itself; test: crystal structure; sitting drop vapour diffusion, protein at 9 mg/ml in 10 mM Tris-HCl pH 8.0, 150 mM NaCl, 1 mM TCEP, with 10 mM MgATP or MgAMPPNP where applicable
[5] = target: the molecule itself; test: SEC; analytical SEC-3 HPLC column in HKMC (50 mM HEPES-KOH pH 7.4, 150 mM KCl, 10 mM MgCl2, 1 mM CaCl2), 25°C; proteins at 20 μM, or at 0.2-50 μM after 16 h at 25°C; approximate Kd from elution peak time against concentration; dimer to monomers
[6] = target: the molecule itself; test: other fluorescence titration; 2.5 nM FICD^S288C-H363A-C421S-TMR with unlabelled FICD or nucleotide as titrant in HKTx, 45 min at 10°C; de-quenching of TMR fluorescence (excitation 535 nm, emission 585 nm)

T2 sequence (G3I8R9 19-654 T229A/V461F): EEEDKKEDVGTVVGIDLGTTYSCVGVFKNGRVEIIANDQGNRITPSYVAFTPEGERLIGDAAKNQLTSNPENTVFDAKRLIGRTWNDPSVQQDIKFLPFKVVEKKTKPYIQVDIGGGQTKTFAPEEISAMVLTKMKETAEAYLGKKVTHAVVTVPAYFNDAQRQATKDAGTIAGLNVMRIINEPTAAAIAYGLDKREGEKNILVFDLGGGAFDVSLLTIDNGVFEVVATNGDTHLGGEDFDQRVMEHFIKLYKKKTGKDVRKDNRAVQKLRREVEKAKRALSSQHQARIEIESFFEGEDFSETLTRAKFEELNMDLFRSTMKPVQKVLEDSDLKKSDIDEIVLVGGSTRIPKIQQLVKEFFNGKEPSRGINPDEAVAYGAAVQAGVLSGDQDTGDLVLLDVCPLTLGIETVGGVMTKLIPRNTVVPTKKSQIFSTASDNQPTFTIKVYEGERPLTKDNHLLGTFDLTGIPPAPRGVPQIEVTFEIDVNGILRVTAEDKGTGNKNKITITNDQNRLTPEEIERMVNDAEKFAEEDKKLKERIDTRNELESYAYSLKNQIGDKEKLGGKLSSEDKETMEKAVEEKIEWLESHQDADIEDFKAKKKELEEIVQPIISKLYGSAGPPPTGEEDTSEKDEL

B1: catalytically inactive, dimeric FICD^H363A (residues 104-445) (domain or fragment, human, UniProt Q9BVA6 104-445, looked up)
chain: LEARAALNQALEMKRQGKREKAQKLFMHALKMDPDFVDALTEFGIFSEEDKDIIQADYLYTRALTISPYHEKALVNRDRTLPLVEEIDQRYFSIIDSKVKKVMSIPKGNSALRRVMEETYYHHIYHTVAIEGNTLTLSEIRHILETRYAVPGKSLEEQNEVIGMHAAMKYINTTLVSRIGSVTISDVLEIHRRVLGYVDPVEAGRFRTTQVLVGHHIPPHPQDVEKQMQEFVQWLNSEEAMNLHPVEFAALAHYKLVYIAPFIDGNGRTSRLLMNLILMQAGYPPITIRKEQRSDYYHVLEAANEGDVRPFIRFIAKCTETTLDTLLFATTEYSVALPEAQP
notes: FICD (HYPE), human, residues 104-445; Dimeric as analyte on BiP; in the rows with m14 and m15 one of its protomers pairs with one labelled protomer; also called dFICD^H363A; UK 1954; source: E. coli T7 Express lysY/Iq, purified (Ni-NTA, on-column Ulp1 cleavage, anion exchange, SEC)
**Q.** Does B1 bind [1]?
**A.** binds

**Q.** And the “fold increase of the dimer dissociation rate with 5 mM ATP against no nucleotide” value [2]?
**A.** 3 fold

**Q.** Does B1 bind [3]?
**A.** binds

B2: wild-type FICD (amino acid residues 104-445) (domain or fragment, human, UniProt Q9BVA6 104-445, looked up)
chain: LEARAALNQALEMKRQGKREKAQKLFMHALKMDPDFVDALTEFGIFSEEDKDIIQADYLYTRALTISPYHEKALVNRDRTLPLVEEIDQRYFSIIDSKVKKVMSIPKGNSALRRVMEETYYHHIYHTVAIEGNTLTLSEIRHILETRYAVPGKSLEEQNEVIGMHAAMKYINTTLVSRIGSVTISDVLEIHRRVLGYVDPVEAGRFRTTQVLVGHHIPPHPQDVEKQMQEFVQWLNSEEAMNLHPVEFAALAHYKLVYIHPFIDGNGRTSRLLMNLILMQAGYPPITIRKEQRSDYYHVLEAANEGDVRPFIRFIAKCTETTLDTLLFATTEYSVALPEAQP
notes: FICD (HYPE), human, residues 104-445; Homodimer in solution; its rows measure this dimerisation, so copies is left empty; also called HYPE; dFICD; source: E. coli T7 Express lysY/Iq, purified (Ni-NTA, on-column Ulp1 cleavage, anion exchange, SEC)
**Q.** For B2, which “stoichiometry N” value [4] is on record?
**A.** 2 molecules in the biological unit

**Q.** What about the “stoichiometry N” value [5] of the same binder?
**A.** 2

B3: non-oxidised FICD^A252C-C421S (residues 104-445) (domain or fragment, human, UniProt Q9BVA6 104-445, looked up)
chain: LEARAALNQALEMKRQGKREKAQKLFMHALKMDPDFVDALTEFGIFSEEDKDIIQADYLYTRALTISPYHEKALVNRDRTLPLVEEIDQRYFSIIDSKVKKVMSIPKGNSALRRVMEETYYHHIYHTVAIEGNTLTLSEIRHILETRYCVPGKSLEEQNEVIGMHAAMKYINTTLVSRIGSVTISDVLEIHRRVLGYVDPVEAGRFRTTQVLVGHHIPPHPQDVEKQMQEFVQWLNSEEAMNLHPVEFAALAHYKLVYIHPFIDGNGRTSRLLMNLILMQAGYPPITIRKEQRSDYYHVLEAANEGDVRPFIRFIAKSTETTLDTLLFATTEYSVALPEAQP
notes: FICD (HYPE), human, residues 104-445; also called non-disulphide-bonded FICD^A252C-C421S; UK 2219; source: E. coli T7 Express lysY/Iq, purified; a separate preparation not subjected to oxidation with glutathione
**Q.** Does B3 bind [5]?
**A.** binds

B4: FICD^K256A (residues 104-445) (domain or fragment, human, UniProt Q9BVA6 104-445, looked up)
chain: LEARAALNQALEMKRQGKREKAQKLFMHALKMDPDFVDALTEFGIFSEEDKDIIQADYLYTRALTISPYHEKALVNRDRTLPLVEEIDQRYFSIIDSKVKKVMSIPKGNSALRRVMEETYYHHIYHTVAIEGNTLTLSEIRHILETRYAVPGASLEEQNEVIGMHAAMKYINTTLVSRIGSVTISDVLEIHRRVLGYVDPVEAGRFRTTQVLVGHHIPPHPQDVEKQMQEFVQWLNSEEAMNLHPVEFAALAHYKLVYIHPFIDGNGRTSRLLMNLILMQAGYPPITIRKEQRSDYYHVLEAANEGDVRPFIRFIAKCTETTLDTLLFATTEYSVALPEAQP
notes: FICD (HYPE), human, residues 104-445; also called dimeric dimer relay mutant FICD^K256A; source: E. coli T7 Express lysY/Iq, purified; gel-filtered into 10 mM Tris-HCl pH 8.0, 150 mM NaCl, 1 mM TCEP for crystallisation
**Q.** For B4, which “stoichiometry N” value [4] is on record?
**A.** 2 molecules in the biological unit

B5: cysteine-free FICD^C421S (residues 104-445) (domain or fragment, human, UniProt Q9BVA6 104-445, looked up)
chain: LEARAALNQALEMKRQGKREKAQKLFMHALKMDPDFVDALTEFGIFSEEDKDIIQADYLYTRALTISPYHEKALVNRDRTLPLVEEIDQRYFSIIDSKVKKVMSIPKGNSALRRVMEETYYHHIYHTVAIEGNTLTLSEIRHILETRYAVPGKSLEEQNEVIGMHAAMKYINTTLVSRIGSVTISDVLEIHRRVLGYVDPVEAGRFRTTQVLVGHHIPPHPQDVEKQMQEFVQWLNSEEAMNLHPVEFAALAHYKLVYIHPFIDGNGRTSRLLMNLILMQAGYPPITIRKEQRSDYYHVLEAANEGDVRPFIRFIAKSTETTLDTLLFATTEYSVALPEAQP
notes: FICD (HYPE), human, residues 104-445; also called UK 2161; source: E. coli T7 Express lysY/Iq, purified by the protocol of the disulphide-linked dimers
**Q.** Does B5 bind [5]?
**A.** binds

B6: FICD^E242A (residues 104-445) (domain or fragment, human, UniProt Q9BVA6 104-445, looked up)
chain: LEARAALNQALEMKRQGKREKAQKLFMHALKMDPDFVDALTEFGIFSEEDKDIIQADYLYTRALTISPYHEKALVNRDRTLPLVEEIDQRYFSIIDSKVKKVMSIPKGNSALRRVMEETYYHHIYHTVAIEGNTLTLSAIRHILETRYAVPGKSLEEQNEVIGMHAAMKYINTTLVSRIGSVTISDVLEIHRRVLGYVDPVEAGRFRTTQVLVGHHIPPHPQDVEKQMQEFVQWLNSEEAMNLHPVEFAALAHYKLVYIHPFIDGNGRTSRLLMNLILMQAGYPPITIRKEQRSDYYHVLEAANEGDVRPFIRFIAKCTETTLDTLLFATTEYSVALPEAQP
notes: FICD (HYPE), human, residues 104-445; also called dimer relay mutant; source: E. coli T7 Express lysY/Iq, purified (Ni-NTA, on-column Ulp1 cleavage, anion exchange, SEC)
**Q.** For B6, which Kd [5] is on record?
**A.** < 0.4 µM

B7: FICD^K256S (residues 104-445) (domain or fragment, human, UniProt Q9BVA6 104-445, looked up)
chain: LEARAALNQALEMKRQGKREKAQKLFMHALKMDPDFVDALTEFGIFSEEDKDIIQADYLYTRALTISPYHEKALVNRDRTLPLVEEIDQRYFSIIDSKVKKVMSIPKGNSALRRVMEETYYHHIYHTVAIEGNTLTLSEIRHILETRYAVPGSSLEEQNEVIGMHAAMKYINTTLVSRIGSVTISDVLEIHRRVLGYVDPVEAGRFRTTQVLVGHHIPPHPQDVEKQMQEFVQWLNSEEAMNLHPVEFAALAHYKLVYIHPFIDGNGRTSRLLMNLILMQAGYPPITIRKEQRSDYYHVLEAANEGDVRPFIRFIAKCTETTLDTLLFATTEYSVALPEAQP
notes: FICD (HYPE), human, residues 104-445; also called Lys256Ser; dimer relay mutant; source: E. coli T7 Express lysY/Iq, purified (Ni-NTA, on-column Ulp1 cleavage, anion exchange, SEC)
**Q.** B7 was tested. Which “stoichiometry N” value [4] did it give?
**A.** 2 molecules in the biological unit

**Q.** What about the Kd [5] of the same binder?
**A.** < 0.4 µM

B8: FICD^G299S (residues 104-445) (domain or fragment, human, UniProt Q9BVA6 104-445, looked up)
chain: LEARAALNQALEMKRQGKREKAQKLFMHALKMDPDFVDALTEFGIFSEEDKDIIQADYLYTRALTISPYHEKALVNRDRTLPLVEEIDQRYFSIIDSKVKKVMSIPKGNSALRRVMEETYYHHIYHTVAIEGNTLTLSEIRHILETRYAVPGKSLEEQNEVIGMHAAMKYINTTLVSRIGSVTISDVLEIHRRVLSYVDPVEAGRFRTTQVLVGHHIPPHPQDVEKQMQEFVQWLNSEEAMNLHPVEFAALAHYKLVYIHPFIDGNGRTSRLLMNLILMQAGYPPITIRKEQRSDYYHVLEAANEGDVRPFIRFIAKCTETTLDTLLFATTEYSVALPEAQP
notes: FICD (HYPE), human, residues 104-445; also called Gly299Ser; source: E. coli T7 Express lysY/Iq, purified (Ni-NTA, on-column Ulp1 cleavage, anion exchange, SEC)
**Q.** How did the Kd [5] turn out when B8 was run?
**A.** 9.5 µM

**Q.** Does B9 bind [6]?
**A.** binds

B10: catalytically inactive, monomeric FICD^L258D-H363A (residues 104-445) (domain or fragment, human, UniProt Q9BVA6 104-445, looked up)
chain: LEARAALNQALEMKRQGKREKAQKLFMHALKMDPDFVDALTEFGIFSEEDKDIIQADYLYTRALTISPYHEKALVNRDRTLPLVEEIDQRYFSIIDSKVKKVMSIPKGNSALRRVMEETYYHHIYHTVAIEGNTLTLSEIRHILETRYAVPGKSDEEQNEVIGMHAAMKYINTTLVSRIGSVTISDVLEIHRRVLGYVDPVEAGRFRTTQVLVGHHIPPHPQDVEKQMQEFVQWLNSEEAMNLHPVEFAALAHYKLVYIAPFIDGNGRTSRLLMNLILMQAGYPPITIRKEQRSDYYHVLEAANEGDVRPFIRFIAKCTETTLDTLLFATTEYSVALPEAQP
notes: FICD (HYPE), human, residues 104-445; also called mFICD^H363A; source: E. coli T7 Express lysY/Iq, purified (Ni-NTA, on-column Ulp1 cleavage, anion exchange, SEC)
**Q.** Does B10 bind [3]?
**A.** binds
